What was measured:
[1] = target: T1, FcRL3, overexpressed on 3T3 cells (UniProt Q96P31 18-734, limits assumed); test: phage clone on 3T3-FcRL3 cells
T1 construct: whole, on cells
T1 sequence (looked up): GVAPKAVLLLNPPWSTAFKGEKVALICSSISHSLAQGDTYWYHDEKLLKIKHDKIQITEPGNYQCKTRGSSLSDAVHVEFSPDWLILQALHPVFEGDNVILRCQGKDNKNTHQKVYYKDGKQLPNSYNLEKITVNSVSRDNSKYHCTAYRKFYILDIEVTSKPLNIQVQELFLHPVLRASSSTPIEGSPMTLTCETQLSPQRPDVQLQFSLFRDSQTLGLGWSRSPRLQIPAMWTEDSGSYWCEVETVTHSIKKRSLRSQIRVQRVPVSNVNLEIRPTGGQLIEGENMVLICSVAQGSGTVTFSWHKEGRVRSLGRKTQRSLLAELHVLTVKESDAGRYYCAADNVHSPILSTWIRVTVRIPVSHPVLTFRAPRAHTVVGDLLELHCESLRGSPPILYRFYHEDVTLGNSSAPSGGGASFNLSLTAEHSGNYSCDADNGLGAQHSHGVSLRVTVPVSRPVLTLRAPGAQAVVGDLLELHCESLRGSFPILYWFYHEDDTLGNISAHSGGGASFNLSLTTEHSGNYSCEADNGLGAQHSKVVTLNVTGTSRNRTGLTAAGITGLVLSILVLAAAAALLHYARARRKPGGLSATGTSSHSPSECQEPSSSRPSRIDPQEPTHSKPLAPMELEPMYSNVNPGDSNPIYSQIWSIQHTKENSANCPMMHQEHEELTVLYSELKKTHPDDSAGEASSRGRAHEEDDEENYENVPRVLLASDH

[2] = target: T2, FcRL6, overexpressed on 3T3 cells (UniProt Q6DN72 20-434, limits assumed); test: phage clone on 3T3-FcRL6 cells
T2 construct: whole, on cells
T2 sequence (looked up): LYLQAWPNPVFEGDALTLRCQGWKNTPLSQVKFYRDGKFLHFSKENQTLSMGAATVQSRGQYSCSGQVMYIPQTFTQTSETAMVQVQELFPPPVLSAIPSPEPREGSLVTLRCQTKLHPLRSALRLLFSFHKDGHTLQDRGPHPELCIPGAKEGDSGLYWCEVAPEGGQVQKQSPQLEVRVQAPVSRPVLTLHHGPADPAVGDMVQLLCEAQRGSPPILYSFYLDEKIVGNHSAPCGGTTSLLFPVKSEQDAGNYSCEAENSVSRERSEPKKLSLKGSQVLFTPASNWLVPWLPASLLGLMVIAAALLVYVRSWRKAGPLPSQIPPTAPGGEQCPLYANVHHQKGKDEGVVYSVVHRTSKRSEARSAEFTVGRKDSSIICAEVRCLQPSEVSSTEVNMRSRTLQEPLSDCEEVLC

| Binder | binding result [1] | binding result [2] |
| --- | --- | --- |
| ET200-042 (scFv, screened as phage clone; entry is VL-linker-VH-His tag-HA tag) scFv: QSVVTQPPSVSGAPGQTVTISCTGGSSNIGTGYFVNWYQQVPGKAPKLLILGNNNRPSGVPDRLSGSTSGTSASLAITGLQAEDEGTYYCQSYDSSLSGYVFGTGTKVTVLGSRGGGGSGGGGSGGGGSLEMAQVQLQQSGPGLVKPSQTLSLTCGISGDSVSTNSVAWHWIRQSPSRGLEWLGRTYYRSKWSNDYGVSVKSRITIIPDTSKNQFSLQLNSVTPEDTAVYYCARSSSWYQIFDYWGQGTLVTVSSTSGQAGQHHHHHHGAYPYDVPDYAS | no binding | no binding |
| ET200-097 (scFv, screened as phage clone; entry is VL-linker-VH-His tag-HA tag) scFv: LPVLTQPPSVSVSPGQTAIITCSGDKLGEKYVSWYQQKPGQSPVLVIDQDTRRPSGIPERFSGSNSGTTATLTISGTQAMDEADYYCQAWDRGVVFGGGTKLTVLGSRGGGGSGGGGSGGGGSLEMAEVQLVESGGDLVQPGRSLRLSCAASGFTFNDYAMHWVRQAPGKGLEWVSGISWSGNNIGYADSVKGRFTISRDNAKNSLYLQMNSLRAEDTALYYCAKDSIRYGITWGGFDYWGQGTLVTVSSTSGQAGQHHHHHHGAYPYDVPDYAS | no binding | no binding |
| ET200-101 (scFv, screened as phage clone; entry is VL-linker-VH-His tag-HA tag) scFv: QAVLTQPPSASGAPGQRVTVSCSGSNSNIGSNYVNWYQQFPGTAPKLLMYSSSQRPSGVPDRFSGSKSGTSASLAISGLHSEDEADYYCATWDDSLNAWVFGGGTKLTVLGSRGGGGSGGGGSGGGGSLEMAEVQLVQSGAEVRKPGASVKVSCKTSGYTFTWYAIHWVRQAPGQRLEWMGWINAGSGNTKYSQKFQGRVTLTRDTSASTAYMELSSLRSDDTAVYYCARPNNYGSGGDVFDIWGQGTMVTVSSTSGQAGQHHHHHHGAYPYDVPDYAS | no binding | no binding |
| ET200-081 (scFv, screened as phage clone; entry is VL-linker-VH-His tag-HA tag) scFv: QSALTQPASVSGSPGQSITISCTGTSSDIGGYNYVSWYQQHPGKAPKLMIYDVSNRPSGVSNRFSGSKSGNTASLTISGLQAEDEADYYCISYTRTWNPYVFGSGTKVTVLGSRGGGGSGGGGSGGGGSLEMAEVQLVQSGGGVVQPGGSLRLSCAASGFTFDDYAMHWVRQAPGKGLEWVSLISGDGGSTYYADSVKGRFTISRDNSKNSLYLQMNSLRTEDTALYYCAKDRAAAGYYYYGMDVWGQGTTVTVSSTSGQAGQHHHHHHGAYPYDVPDYAS | no binding | no binding |
| ET200-099 (scFv, screened as phage clone; entry is VL-linker-VH-His tag-HA tag) scFv: QSVLTQPPSASGTPGQRVTISCSGSSSNIGSNTVNWYQQLPGTAPKLLIYSNDQRPSGVPDRFSGSKSGTSASLAISGLQSEDEADYYCASWDDSLNGRYVFGTGTKVTVLGSRGGGGSGGGGSGGGGSLEMAQVQLVQSGAEVRKPGASVKVSCKTSGYTFSWYAIHWVRQAPGQRLEWMGWINAGNGNTKYSQKFQGRVSLTRDTSASTAYMELSSLRSDDTAVYYCARPDNYGSGGDVFDIWGQGTMVTVSSTSGQAGQHHHHHHGAYPYDVPDYAS | no binding | no binding |
| ET200-045 (scFv, screened as phage clone; entry is VL-linker-VH-His tag-HA tag) scFv: QPVLTQPPSVSVAPGKTATITCGGNNIGSESVHWYHQKPGQAPVLVIYDDAGRPSGIPERFTGSNSGNTATLTISRVEAGDEADYYCQVWDRNSAQFVFGPGTKVTVLGSRGGGGSGGGGSGGGGSLEMAEVQLVQSGAEVKKPGASVKVSCKASGYTFTSYGISWVRQAPGQGLEWMGWISAYNGNTNYAQKLQGRVTMTTDTSTSTAYMELRSLRSDDTAVYYCARGVHLDWWGQGTLVTVSSTSGQAGQHHHHHHGAYPYDVPDYAS | no binding | no binding |
| ET200-098 (scFv, screened as phage clone; entry is VL-linker-VH-His tag-HA tag) scFv: QPVLTQPPSVSKGLRQTATLTCTGNSNNVGNLGVAWLQQHQGHPPKLLSYRNNNRPSGISERLSASRSGNTASLTITGLQPEDEADYYCSAWDSSLSAWVFGGGTKLTVLGSRGGGGSGGGGSGGGGSLEMAEVQLVESGGVVVQPGGSLRLSCAASGFTFDDYAMHWVRQAPGKGLEWVSLINWDGGSTYYADSVKGRFTISRDNSKNSLYLQMNSLRAEDTALYYCAKGMGLRAFDYWGQGTLVTVSSTSGQAGQHHHHHHGAYPYDVPDYAS | no binding | no binding |
| ET200-069 (scFv, screened as phage clone; entry is VL-linker-VH-His tag-HA tag; also called ET200-69) scFv: QSVVTQPPSASGTPGQRVTISCSGSSSNIGSNYVYWYQQLPGTAPKLLIYSNNQRPSGVPDRFSGSKSGTSASLAISGLRSEDEADYYCAAWDDSLSGYVFGTGTKLTVLGSRGGGGSGGGGSGGGGSLEMAQVQLQQWGAGLLKPSETLSLTCAVYGGSFSGYYWSWIRQPPGKGLEWIGEINHSGSTNYNPSLKSRVTISVDTSKNQFSLKLSSVTAADTAVYYCARLYEGGYHGWGSWLSSDSWGQGTLVTVSSTSGQAGQHHHHHHGAYPYDVPDYAS | no binding | no binding |
| ET200-044 (scFv, screened as phage clone; entry is VL-linker-VH-His tag-HA tag) scFv: QSVLTQPPSVSVSPGQTATIACSGHKLGDKYASWYQQKSGQSPVLIIYQDNKRPSGIPERFSGSNSGNTATLTISGTQALDEADYYCQAWDSSTYVAFGGGTKLTVLGSRGGGGSGGGGSGGGGSLEMAQVQLQESGPGLVKPSETLSLTCVVSGGSISSSNWWSWVRQPPGKGLEWIGEIYHSGSPNYNPSLKSRVTISVDKSKNQFSLKLSSVTAADTAVYYCARMTTHTFGYDAWGQGTLVTVSSTSGQAGQHHHHHHGAYPYDVPDYAS | no binding | no binding |
| ET200-006 (scFv, screened as phage clone; entry is VL-linker-VH-His tag-HA tag) scFv: SYVLTQPPSVSVAPGKTARITCGGNNIGSKSVHWYQQKPGQAPVVVIHYDSDRPSGIPERFSGSNSGNTATLTISRVEAGDEADYYCQVWDSSSDHPYVFGTGTKVTVLGSRGGGGSGGGGSGGGGSLEMAEVQLVQSGAEVKKPGASVKVSCKASGYTFTTYGISWVRQAPGQGLEWMGWINTYNGHTNYAQKLQGRATMTADTSTNTAYMELRSLRSDDTAVYYCARVIYGSGDYWGQGTLVTVSSTSGQAGQHHHHHHGAYPYDVPDYAS | no binding | no binding |
| ET200-102 (scFv, screened as phage clone; entry is VL-linker-VH-His tag-HA tag) scFv: QSVVTQPPSVSAAPGQKVTISCSGSSSNIGNNYVSWYQQLPGTAPKLLIYDNNKRPSGIPDRFSGSKSGTSATLGITGLQTGDEADYYCGTWDSSLSAYVFGTGTKVTVLGSRGGGGSGGGGSGGGGSLEMAQVQLVQSGAEVKKPGASVKVSCKASGYTFTNYALHWVRQAPGQGLEWMAWINGGNGNTKYSQNFQGRVTITRDTSASTAYMELSSLRSEDTAVYYCAKPEETAGTIHFDYWGQGTPVTVSSTSGQAGQHHHHHHGAYPYDVPDYAS | no binding | no binding |
| ET200-100 (scFv, screened as phage clone; entry is VL-linker-VH-His tag-HA tag) scFv: NFMLTQPHSVSESPGKTVTISCTRSSGSIASNFVQWYQQRPGSAPTPMIYEDNNRPPGVPDRFSASVDSSSNSASLTISGLKTEDEADYYCQSYDTSNVVFGGGTKLTVLGSRGGGGSGGGGSGGGGSLEMAEVQLVESGGGLVQPGGSLRLSCAASGFTFSSYEMNWVRQAPGKGLEWVSYISSSGSTIYYADSVKGRFTISRDNAKNSLYLQMNSLRAEDTAVYYCARWDYGMDVWGQGTTVTVSSTSGQAGQHHHHHHGAYPYDVPDYAS | no binding | no binding |
| ET200-104 (scFv, screened as phage clone; entry is VL-linker-VH-His tag-HA tag) scFv: NFMLTQPHSVSESPGKTVTISCTRSSGSIASNYVQWYQQRPGSAPTTVIYEDNQRPSGVPDRFSGSIDSSSNSASLTISGLKTEDEADYYCQSYDSSNVVFGGGTKVTVLGSRGGGGSGGGGSGGGGSLEMAEVQLVESGGGLVQPGGSLRLSCAASGFTFSSYEMNWVRQAPGKGLEWVSYISSSGSTIYYADSVKGRFTISRDNAKNSLYLQMNSLRAEDTAVYYCARWDYGMDVWGQGTTVTVSSTSGQAGQHHHHHHGAYPYDVPDYAS | no binding | no binding |
| ET200-079 (scFv, screened as phage clone; entry is VL-linker-VH-His tag-HA tag) scFv: SYELTQPPSASGTPGQRVTISCSGSSSNIGSNYVYWYQQLPGTAPKLFIYRNNQRPSGVPDRFSGSKSGTSASLAISGLRSEDEADYYCAAWDDSLSGYLFGTGTKVTVLGSRGGGGSGGGGSGGGGSLEMAEVQLVESGGGLVQPGRSLRLSCAASGFTFDDYAMHWVRQAPGKGLEWVSGISWNSGSIGYADSVKGRFTISRDNAKNSLYLQMNSLRAEDTALYYCANGDSNYYYGMDVWGQGTTVTVSSTSGQAGQHHHHHHGAYPYDVPDYAS | no binding | no binding |

From US20210388081A1 (Memorial Sloan Kettering, published 2021)
